The target of test [1] is SIV transmembrane glycoprotein gp41 (SIVmneE11S), naturally truncated intra-viral domain of 17 amino acids, on virions (SIV (strain SIVmneE11S)) (UniProt P05885). Nature of the test: cryo-EM structure; cryo-electron tomography of vitrified intact SIVmneE11S virions; 2,986 spikes extracted, aligned and averaged with 3-fold symmetrisation; 28 Å (0.5 FSC); Env unliganded, in situ on the viral membrane.

The target of test [2] is SIV surface glycoprotein gp120 (SIVmneE11S), on virions (SIV (strain SIVmneE11S)) (UniProt P05885). The description is as above.

Usually stoichiometry N stands for a count of units in the complex or per binding partner. As to “SIV transmembrane glycoprotein gp41 (SIVmneE11S), naturally truncated intra-viral domain of 17 amino acids, on virions (from UniProt P05885 529-882) (natural protein)”, the stoichiometry N in test [1] turned out to be 3. On to “SIV surface glycoprotein gp120 (SIVmneE11S), on virions (from UniProt P05885 23-528) (natural protein)”, for which the stoichiometry N in test [2] is 3.

The values are drawn from PMC1557830.
